Data on two molecules can be found in patent US20220098328A1, “ANTIBODIES TO M(H)DM2/4 AND THEIR USE IN DIAGNOSING AND TREATING CANCER” (NomoCan Pharmaceuticals LLC, priority 2017, published 2022).

Entries after “also recorded” stand apart in the source; their conditions may differ.

Test [1] deals with human uveal melanoma 92.1 cells. As to the kind of experiment: Cell-ELISA on intact cells. It is filed as cell-based. The conditions noted are these: mAb 1 μg/mL, fixed, non-permeabilized cells. The procedure: (§1) Cell-ELISA Methodology: 8,000-10,000 cells/well of a 96-well microplate were grown overnight. The next day, unbound cells were washed off with sterile 1×PBS. The cells in each well were fixed with freshly prepared 4% buffered paraformaldehyde (pH 7.2) for 1 hour followed by 3 washes with 1×PBS. The wells were then blocked with 5% BSA in PBS (100 μl/well) for 2 hours at room temperature. Microplate wells were then washed 5 times with 300 μl of ice cold 1×PBS. MAbs NMC-103, NMC-204 or NMC-303 at 1 μg/mL in 1% BSA/PBS were then incubated with various cancer or normal untransformed cells for 2 hours at room temperature. Wells were then washed with 300 μl of ice-cold 1×PBS for 5 times and corresponding secondary antibody HRP-GaM F(ab′)2 diluted 1:2500 or 1:5000 in PBS with 1% BSA were added at 100 μl/well for 1 hour at room temperature followed by washing 5 times with 300 μl of ice-cold 1×PBS. TMB Substrate Solution (1-Step™ Ultra TMB-ELISA, ThermoFisher, Cat. No. 34028) was then added at 50 μL to each microplate well and incubated at room temperature for 30 minutes. The reaction was stopped by addition of 50 μL of stop solution (ThermoFisher, Cat. No. SS04) to each well and absorbance of each well was measured at OD450 nm. The absorbance value of each experimental well was corrected for the absorbance value obtained from wells treated with isotype-identical mAbs included in each experiment. The results are thus expressed as “relative binding”.
For orientation: An ELISA detects its analyte on a solid surface through an enzyme-linked reagent.

Test [2] concerns normal human peripheral blood mononuclear cells (PBMCs). As to the kind of experiment: Cell-ELISA on intact cells. It is filed as cell-based. The settings on record: freshly isolated normal human PBMCs. The procedure:
as §1

The test system of test [3] is human triple negative breast cancer HCC1806 cells. As to the kind of experiment: Cell-ELISA on intact cells. The conditions noted are these: mAb 1 μg/mL, fixed, non-permeabilized cells. It is filed as cell-based. The method, then:
as §1

In test [4] the test system is mouse colon cancer MC-38 cells. As to the kind of experiment: MC-38 syngeneic mouse model of colon cancer. It is filed as in vivo. The conditions noted are these: for reduction in tumor volume over the same time period: 0.4 mg/kg i.p. 3 times a week for 3 weeks. The method, then: Methodology used (Syngeneic Mouse Models of lung, colon and pancreatic cancer): To investigate the anti-tumor effects of HDM2-specific antibodies on lung, colon and pancreatic tumors in vivo, three well-known syngeneic mouse models of lung, colon and pancreatic cancer were used (Sharma et al., 1999, J. Immunol. 163 (9):5020-5028; McIntyre, 2015, Bioassays 37(8):909-920; Li, et al., 2015, Sci. Rep. 5:7856). Subcutaneous tumors were prepared by implanting either mouse Lewis Lung cancer LL/2 cells (2.5×10^5 cells/mouse), mouse colon cancer MC-38 cells (5×10^5 cells/mouse) or mouse pancreatic cancer Panc-2 cells (2×10^6 cells/mouse) in the right flanks of 8-week-old female C57BL/6 mice (n=6-7). The mice were returned to their respective cages after tumor implantation. From day 7 after tumor implantation, the tumor volumes were measured 2 times/week with a digital caliper. In the case of MC-38 and Panc-2 study, treatment started when the tumors reached an average of 70-80 mm^3. In the case of LL/2 study, tumor cell inoculation and treatment were initiated simultaneously. Mice were micro-chipped and registered following tumor implantation. Tumor volume measurements and body weights were recorded and mice were randomized into groups that received: A) mAb NMC-103 at 0.4 mg/kg (3 times a week for 3 weeks), 2 mg/kg (2 times a week for 3 weeks), or 4 mg/kg (2 times a week for 3 weeks); B) NMC-204 at 0.4 mg/kg (3 times a week for 3 weeks); C) isotype control mouse IgG1 (Abcam, Cat. No. ab18447) or IgG3 (Abcam, Cat. No. ab18392) at 0.4 mg/kg (3 times a week for 3 weeks) or 4 mg/kg (2 times a week for 3 weeks); D) Gemcitabine (25 mg/kg) and nab-paclitaxel (5 mg/kg) 2 times a week for 3 weeks; or E) a combination of gemcitabine (25 mg/kg), nab-paclitaxel (5 mg/kg) and mAb NMC-103 (2 mg/kg; 2 times a week for 3 weeks) or ([…]; […]). All tumors were injected subcutaneously and all treatments were performed by intraperitoneal injection. Any mouse displaying prolonged adverse clinical signs, or with body weight loss exceeding 15% relative to body weight at day 0, was euthanized. Tumor measurements from post-treatment with HDM2-specific antibodies versus isotype control mouse antibodies versus standard of care treatment (gemcitabine and nab-paclitaxel) were made, and results are presented in FIGS. 16-19.

Test [5] deals with human pancreatic cancer MIAPaCa-2 cells. As to the kind of experiment: In vitro growth inhibition (cell count). It is filed as cell-based. The conditions noted are these: overnight, MIAPaCa-2 8,000 cells/well. The procedure:
Methodology used: Human pancreatic cancer MIAPaCa-2 cells (8,000 cells/well) were pre-incubated with mAb NMC-103, NMC-204 and anti-Cytochrome-C antibody (Santa Cruz, Cat No. sc-13156) at 1, 5 and 10 μg/mL, respectively. Cells in the presence of one of the antibodies at various concentrations were then plated in triplicate in 96-well cell culture plates overnight. The next day, each plate well was analyzed morphologically and a picture was taken from each well using EVOS FL microscope. Cell count was also performed and the number of living cells was graphed as % of control.

B1: NMC-103: mouse monoclonal antibody of the IgG1 isotype that binds to NMC-P1 (SEQ ID NO:1); VH SEQ ID NO:36, VL SEQ ID NO:37 (antibody, V domains shown)
VH: EVQLQESGGGLVQPGGSLRLSCTTSGFTFTHYYMSWVRQPPGKALEWLGFIRNKAKGYTAEYSASVKGRFTISRDNSQSILYLQMNTLRPEDSATYYCARDIGDNWGQGTLVTVSS
VL: DIVMTQAAFSNPVTLGTSASISCRSSKNLLHSNGITYLYWYLQRPGQSPQLLISRVSNLASGVPNRFSGSESGTDFTLRISRVEAEDVGVYFCAQLLELPYTFGGGTKLEIK
modifications: mAb NMC-103 Heavy Chain Variable Region; mAb NMC-103 Light Chain Variable Region
As to B1, the “relative binding (reactivity) to intact cells, cell-ELISA” value in test [1] and in test [3] was “reactivity” throughout. Moreover, the “binding to intact normal cells, cell-ELISA” value in test [2] is given as “virtually no binding”. Also, the average tumor size in test [4] (MC-38, n=5, 10 mg/kg 2 times per week, by day 12) stood at 210 mm^3. Moreover, the “reduction in tumor volume over the same time period” value in test [4] (MC-38) was “significant (p<0.005) reduction in tumor volume”. Moreover, the “tumor reduction at 10 mg/kg compared to 0.4 mg/kg” value in test [4] (MC-38, 10 mg/kg two times per week for three weeks vs FIG. 17) was “greater tumor reduction”. In test [4] (MC-38 s.c. in C57BL/6, 0.4 mg/kg i.p. 3 times a week for 2.5 weeks, treated for 18 days (NMC-103 study)), the tumor volume worked out at 1268 mm^3. Also, the “tumor cells stained positive for Ki67” value in test [4] (MC-38 tumors, immunohistochemical staining, NMC-103 study, 0.4 mg/kg) was determined as 5%. Further, the growth inhibitory effect in test [5] (1 μg/mL antibody) was determined as 65%; in test [5] (5 μg/mL antibody), 84%; in test [5] (10 μg/mL antibody), 91%.

B2: NMC-204: mouse monoclonal antibody of the IgG3 isotype that binds to NMC-P2 (SEQ ID NO:2); VH SEQ ID NO:38, VL SEQ ID NO:39 (antibody, V domains shown)
VH: EVQLQESGSVLVRPGASVKLSCKASGDTLSGSWMHWAMQRPGQGLEWIGEIHLNRGTTNYNEKFKGKATVTVDTSSSTAYVDLSSLTSEDSAVYYCARSPGFAYWGQGTLVTVSA
VL: GIVMTQAAPSVPVTPGESVSISCRSSKSLLHSNGNSYLYWFLQRPGQSPQLLIYRMSNLASGVPDRFSGSGSGTAFTLRITRVEAEDVGVYYCMQHLEYPFTFGSGTKLEIK
modifications: mAb NMC-204 Heavy Chain Variable Region; mAb NMC-204 Light Chain Variable Region
Turning to B2, the “relative binding (reactivity) to intact cells, cell-ELISA” value in test [1] and in test [3] was “reactivity” in each case. In addition, the “binding to intact normal cells, cell-ELISA” value in test [2] is reported as “did not react; also recorded: virtually no binding”. Moreover, the “reduction in tumor volume over the same time period” value in test [4] (MC-38) was “significant (p<0.005) reduction in tumor volume”. Besides, the tumor volume in test [4] (MC-38, 0.4 mg/kg i.p. 3 times a week for 3 weeks (NMC-204 study)) is listed as 1670 mm^3. The “tumor cells stained positively for Ki67” value in test [4] (MC-38 tumors, NMC-204 study, 0.4 mg/kg) is reported as 30%. Besides, the results for the growth inhibitory effect in test [5] (1 μg/mL antibody), in test [5] (5 μg/mL antibody) and in test [5] (10 μg/mL antibody) were 65%, 73% and 77%, respectively.
